Data reported in article PMC11417369, “DNA sequence and chromatin differentiate sequence-specific transcription factor binding in the human malaria parasite Plasmodium falciparum”.

B1: GTGCAC_negctrl_site302 (dsDNA)
DNA 1: TAAAAAAATAAAAAAAAAAAATTATAAAATTATATA
DNA 2: TATATAATTTTATAATTTTTTTTTTTTATTTTTTTA
B2: GTGCAC_negctrl_site143 (dsDNA)
DNA 1: TTTTTTTTTTTTTTTTTTTTTTTTTTGTTCAGGCCT
DNA 2: AGGCCTGAACAAAAAAAAAAAAAAAAAAAAAAAAAA
B3: GTGCAC_negctrl_site240 (dsDNA)
DNA 1: TTTTTTTTTTTTTTTTTTTGATTCTTATAAAAATTT
DNA 2: AAATTTTTATAAGAATCAAAAAAAAAAAAAAAAAAA
B4: GTGCAC_negctrl_site480 (dsDNA)
DNA 1: TTATAATAAAAGGCTTTACAATTATTAAACAAATAA
DNA 2: TTATTTGTTTAATAATTGTAAAGCCTTTTATTATAA
B5: GTGCAC_negctrl_site722 (dsDNA)
DNA 1: ATAATACAAAAAAAAAAAAAAAATAAAATAATAAAA
DNA 2: TTTTATTATTTTATTTTTTTTTTTTTTTTGTATTAT
B6: GTGCAC_negctrl_site74 (dsDNA)
DNA 1: AATTGGAAGAAAAAAAAGGAAGGAAAGTTATTACAT
DNA 2: ATGTAATAACTTTCCTTCCTTTTTTTTCTTCCAATT
B7: GTGCAC_negctrl_site144 (dsDNA)
DNA 1: TTTTTTCTTTTTTTTTTTAATTATAAACATGATATT
DNA 2: AATATCATGTTTATAATTAAAAAAAAAAAGAAAAAA
B8: GTGCAC_negctrl_site697 (dsDNA)
DNA 1: AAAACTTTTAAAATTTTGTATTCATTCCTTCAACAA
DNA 2: TTGTTGAAGGAATGAATACAAAATTTTAAAAGTTTT
B9: GTGCAC_negctrl_site318 (dsDNA)
DNA 1: ATTTAAAAAAAAAAAAATAAATAACTTGAAAAACAA
DNA 2: TTGTTTTTCAAGTTATTTATTTTTTTTTTTTTAAAT
B10: GTGCAC_negctrl_site630 (dsDNA)
DNA 1: TTCTTTTCTTTTTTCTTTTTTTTTTTCTTTTCTTTT
DNA 2: AAAAGAAAAGAAAAAAAAAAAGAAAAAAGAAAAGAA
B11: GTGCAC_negctrl_site87 (dsDNA)
DNA 1: ATATATATAAAATATTATATTAAAAAAAATAAAATA
DNA 2: TATTTTATTTTTTTTAATATAATATTTTATATATAT
B12: GTGCAC_negctrl_site607 (dsDNA)
DNA 1: TTTTCATTTATGTATATATTTATTTTGATTTAATGT
DNA 2: ACATTAAATCAAAATAAATATATACATAAATGAAAA
B13: GTGCAC_negctrl_site162 (dsDNA)
DNA 1: TTTCTTATAGATTTTAATCCTCTATCAAAAAAAGAA
DNA 2: TTCTTTTTTTGATAGAGGATTAAAATCTATAAGAAA
B14: GTGCAC_negctrl_site459 (dsDNA)
DNA 1: TTTTTTAGATTACATAAATATAAATATAAATATATA
DNA 2: TATATATTTATATTTATATTTATGTAATCTAAAAAA
B15: GTGCAC_negctrl_site347 (dsDNA)
DNA 1: TTTTTTTTTATATAAAAAAAAATTTTTATTATTTTA
DNA 2: TAAAATAATAAAAATTTTTTTTTATATAAAAAAAAA
B16: GTGCAC_negctrl_site52 (dsDNA)
DNA 1: TTTTTACTATAATTAAAATTAACAAAAGAAAATGAT
DNA 2: ATCATTTTCTTTTGTTAATTTTAATTATAGTAAAAA
B17: GTGCAC_negctrl_site639 (dsDNA)
DNA 1: AAATAATTTATAAATAAATACATTGTTACTTTTTCT
DNA 2: AGAAAAAGTAACAATGTATTTATTTATAAATTATTT
B18: GTGCAC_negctrl_site147 (dsDNA)
DNA 1: AGTAAAAAAAAAAAAAAAAAAAAAAAAAAAAAAAAA
DNA 2: TTTTTTTTTTTTTTTTTTTTTTTTTTTTTTTTTACT
B19: GTGCAC_negctrl_site405 (dsDNA)
DNA 1: TTTTTTATATTGATATTTATTAAATATGAAATGTTA
DNA 2: TAACATTTCATATTTAATAAATATCAATATAAAAAA
B20: GTGCAC_negctrl_site152 (dsDNA)
DNA 1: ATTATTTAATTTTATTAAAAAAAAACAAATTAACAG
DNA 2: CTGTTAATTTGTTTTTTTTTAATAAAATTAAATAAT
B21: GTGCAC_negctrl_site289 (dsDNA)
DNA 1: TTTTTAGAAAAGGTTATAAAAAATTAATTGAAAAAA
DNA 2: TTTTTTCAATTAATTTTTTATAACCTTTTCTAAAAA
B22: GTGCAC_negctrl_site303 (dsDNA)
DNA 1: TCTTTTTTTTTTTTTTTTTCTTCTTCTCAATATAAA
DNA 2: TTTATATTGAGAAGAAGAAAAAAAAAAAAAAAAAGA
B23: GTGCAC_negctrl_site474 (dsDNA)
DNA 1: ATAAAATATTAATTTTAAATTAATCAATATATATAA
DNA 2: TTATATATATTGATTAATTTAAAATTAATATTTTAT
B24: GTGCAC_negctrl_site221 (dsDNA)
DNA 1: ATATGTATAAGTATGTATATTTATTTATACTTATGT
DNA 2: ACATAAGTATAAATAAATATACATACTTATACATAT
B25: GTGCAC_negctrl_site564 (dsDNA)
DNA 1: ATAATGAACAATATTATATATAAAATATAATTTATA
DNA 2: TATAAATTATATTTTATATATAATATTGTTCATTAT
B26: GTGCAC_negctrl_site190 (dsDNA)
DNA 1: TAGTTACTTCTTATATAAAATATGTATATAAAAATA
DNA 2: TATTTTTATATACATATTTTATATAAGAAGTAACTA
B27: GTGCAC_negctrl_site542 (dsDNA)
DNA 1: AAAATCCAGTTTTCAAAATTGAACAAAAAAAAAATA
DNA 2: TATTTTTTTTTTGTTCAATTTTGAAAACTGGATTTT
B28: GTGCAC_negctrl_site77 (dsDNA)
DNA 1: TATTAAAATATGTCAGTTCTTAAAAAGTTGATGAGT
DNA 2: ACTCATCAACTTTTTAAGAACTGACATATTTTAATA
B29: GTGCAC_negctrl_site73 (dsDNA)
DNA 1: AGCACACAAAAAAAAAAAAAAAAAAAAAAAGGAATG
DNA 2: CATTCCTTTTTTTTTTTTTTTTTTTTTTTGTGTGCT
B30: GTGCAC_negctrl_site236 (dsDNA)
DNA 1: TGTTAAAAGGTTAAATTAAAATAACCTCCGGAAATT
DNA 2: AATTTCCGGAGGTTATTTTAATTTAACCTTTTAACA
B31: GTGCAC_negctrl_site183 (dsDNA)
DNA 1: TGTATAGGTACAATAATTATAGAGTAATTGACATTA
DNA 2: TAATGTCAATTACTCTATAATTATTGTACCTATACA
B32: GTGCAC_negctrl_site550 (dsDNA)
DNA 1: AAAAAAAATAAAGAGAAAAAAAAAAGAAAATTATAT
DNA 2: ATATAATTTTCTTTTTTTTTTCTCTTTATTTTTTTT
B33: GTGCAC_negctrl_site10 (dsDNA)
DNA 1: TGCCATATATATATTAAATACATAATAATGAGCCTA
DNA 2: TAGGCTCATTATTATGTATTTAATATATATATGGCA
B34: GTGCAC_negctrl_site352 (dsDNA)
DNA 1: TTTTTTTTTTTTTTTTTTTTCACATGTGTGGAAAAA
DNA 2: TTTTTCCACACATGTGAAAAAAAAAAAAAAAAAAAA
B35: GTGCAC_negctrl_site622 (dsDNA)
DNA 1: TTTTGAATATATTAAATAAATTAAAAATCTACAAAC
DNA 2: GTTTGTAGATTTTTAATTTATTTAATATATTCAAAA
B36: GTGCAC_negctrl_site20 (dsDNA)
DNA 1: TAGTTCCTCAAAAATTTCCTTTGTCATTTTATTCAC
DNA 2: GTGAATAAAATGACAAAGGAAATTTTTGAGGAACTA
B37: GTGCAC_negctrl_site710 (dsDNA)
DNA 1: AATATATTTTAGAGTTTTATATATTTTATGCATATA
DNA 2: TATATGCATAAAATATATAAAACTCTAAAATATATT
B38: GTGCAC_negctrl_site151 (dsDNA)
DNA 1: TTTGTTCTATGGAGTTTAAAATGTAATATATATTAA
DNA 2: TTAATATATATTACATTTTAAACTCCATAGAACAAA
B39: GTGCAC_negctrl_site230 (dsDNA)
DNA 1: TGTTGTTATAAAAAAAAAAAAAAAAAAAAAAAAAAA
DNA 2: TTTTTTTTTTTTTTTTTTTTTTTTTTTATAACAACA
B40: GTGCAC_negctrl_site596 (dsDNA)
DNA 1: TTTTTTATTTTATTTTATTTTTATTTTTTTTTTTTT
DNA 2: AAAAAAAAAAAAATAAAAATAAAATAAAATAAAAAA
B41: GTGCAC_negctrl_site549 (dsDNA)
DNA 1: TTTTTTATAGTACATTACCAAAAAAAAAAAAAAAAA
DNA 2: TTTTTTTTTTTTTTTTTGGTAATGTACTATAAAAAA
B42: GTGCAC_negctrl_site17 (dsDNA)
DNA 1: TTTTTTTTTTTTTTTTTTTTCTTCATTTAATTTATA
DNA 2: TATAAATTAAATGAAGAAAAAAAAAAAAAAAAAAAA
B43: GTGCAC_negctrl_site681 (dsDNA)
DNA 1: AAAGGTAAATGTAAATAAATAAATAATAAATATATA
DNA 2: TATATATTTATTATTTATTTATTTACATTTACCTTT
B44: GTGCAC_negctrl_site541 (dsDNA)
DNA 1: TCCCCCTTTTTTTGATTTTTATCTTAATTCTAAAAG
DNA 2: CTTTTAGAATTAAGATAAAAATCAAAAAAAGGGGGA

Biological target: T1, HDP1 homeodomain-like (Plasmodium falciparum, UniProt Q8IKH4 2990-3078)
T1 sequence: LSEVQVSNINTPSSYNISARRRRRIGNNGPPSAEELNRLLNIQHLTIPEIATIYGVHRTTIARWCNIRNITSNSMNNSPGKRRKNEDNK
Experiment: gcPBM; about 25 ug protein; PBS, 1% milk, 0.2 mg/ml BSA, salmon testes DNA, 0.03% Triton X-100
Conditions: tags: N-terminal GST (pGEX-4T-1), kept; chain copies: 2; label: surface-attached array probe

Row | Binder | binding signal
1 | B1 | 5.98 ln median PBM intensity, better of two orientations
2 | B2 | 5.99 ln median PBM intensity, better of two orientations
3 | B3 | 6.02 ln median PBM intensity, better of two orientations
4 | B4 | 6.03 ln median PBM intensity, better of two orientations
5 | B5 | 6.04 ln median PBM intensity, better of two orientations
6 | B6 | 6.06 ln median PBM intensity, better of two orientations
7 | B7 | 6.07 ln median PBM intensity, better of two orientations
8 | B8 | 6.07 ln median PBM intensity, better of two orientations
9 | B9 | 6.08 ln median PBM intensity, better of two orientations
10 | B10 | 6.08 ln median PBM intensity, better of two orientations
11 | B11 | 6.1 ln median PBM intensity, better of two orientations
12 | B12 | 6.11 ln median PBM intensity, better of two orientations
13 | B13 | 6.12 ln median PBM intensity, better of two orientations
14 | B14 | 6.12 ln median PBM intensity, better of two orientations
15 | B15 | 6.12 ln median PBM intensity, better of two orientations
16 | B16 | 6.13 ln median PBM intensity, better of two orientations
17 | B17 | 6.13 ln median PBM intensity, better of two orientations
18 | B18 | 6.13 ln median PBM intensity, better of two orientations
19 | B19 | 6.13 ln median PBM intensity, better of two orientations
20 | B20 | 6.14 ln median PBM intensity, better of two orientations
21 | B21 | 6.15 ln median PBM intensity, better of two orientations
22 | B22 | 6.15 ln median PBM intensity, better of two orientations

Row | Binder | binding signal
23 | B23 | 6.16 ln median PBM intensity, better of two orientations
24 | B24 | 6.16 ln median PBM intensity, better of two orientations
25 | B25 | 6.17 ln median PBM intensity, better of two orientations
26 | B26 | 6.17 ln median PBM intensity, better of two orientations
27 | B27 | 6.19 ln median PBM intensity, better of two orientations
28 | B28 | 6.19 ln median PBM intensity, better of two orientations
29 | B29 | 6.21 ln median PBM intensity, better of two orientations
30 | B30 | 6.21 ln median PBM intensity, better of two orientations
31 | B31 | 6.21 ln median PBM intensity, better of two orientations
32 | B32 | 6.22 ln median PBM intensity, better of two orientations
33 | B33 | 6.22 ln median PBM intensity, better of two orientations
34 | B34 | 6.23 ln median PBM intensity, better of two orientations
35 | B35 | 6.24 ln median PBM intensity, better of two orientations
36 | B36 | 6.25 ln median PBM intensity, better of two orientations
37 | B37 | 6.25 ln median PBM intensity, better of two orientations
38 | B38 | 6.25 ln median PBM intensity, better of two orientations
39 | B39 | 6.26 ln median PBM intensity, better of two orientations
40 | B40 | 6.26 ln median PBM intensity, better of two orientations
41 | B41 | 6.26 ln median PBM intensity, better of two orientations
42 | B42 | 6.26 ln median PBM intensity, better of two orientations
43 | B43 | 6.27 ln median PBM intensity, better of two orientations
44 | B44 | 6.28 ln median PBM intensity, better of two orientations
